The target in experiment [1] is T1, human Ub E1 activating enzyme UBA1 (recombinant, wild type) (human, UniProt P22314 1-1058).
T1 construct: Catalytic cysteine C632
T1 sequence (looked up): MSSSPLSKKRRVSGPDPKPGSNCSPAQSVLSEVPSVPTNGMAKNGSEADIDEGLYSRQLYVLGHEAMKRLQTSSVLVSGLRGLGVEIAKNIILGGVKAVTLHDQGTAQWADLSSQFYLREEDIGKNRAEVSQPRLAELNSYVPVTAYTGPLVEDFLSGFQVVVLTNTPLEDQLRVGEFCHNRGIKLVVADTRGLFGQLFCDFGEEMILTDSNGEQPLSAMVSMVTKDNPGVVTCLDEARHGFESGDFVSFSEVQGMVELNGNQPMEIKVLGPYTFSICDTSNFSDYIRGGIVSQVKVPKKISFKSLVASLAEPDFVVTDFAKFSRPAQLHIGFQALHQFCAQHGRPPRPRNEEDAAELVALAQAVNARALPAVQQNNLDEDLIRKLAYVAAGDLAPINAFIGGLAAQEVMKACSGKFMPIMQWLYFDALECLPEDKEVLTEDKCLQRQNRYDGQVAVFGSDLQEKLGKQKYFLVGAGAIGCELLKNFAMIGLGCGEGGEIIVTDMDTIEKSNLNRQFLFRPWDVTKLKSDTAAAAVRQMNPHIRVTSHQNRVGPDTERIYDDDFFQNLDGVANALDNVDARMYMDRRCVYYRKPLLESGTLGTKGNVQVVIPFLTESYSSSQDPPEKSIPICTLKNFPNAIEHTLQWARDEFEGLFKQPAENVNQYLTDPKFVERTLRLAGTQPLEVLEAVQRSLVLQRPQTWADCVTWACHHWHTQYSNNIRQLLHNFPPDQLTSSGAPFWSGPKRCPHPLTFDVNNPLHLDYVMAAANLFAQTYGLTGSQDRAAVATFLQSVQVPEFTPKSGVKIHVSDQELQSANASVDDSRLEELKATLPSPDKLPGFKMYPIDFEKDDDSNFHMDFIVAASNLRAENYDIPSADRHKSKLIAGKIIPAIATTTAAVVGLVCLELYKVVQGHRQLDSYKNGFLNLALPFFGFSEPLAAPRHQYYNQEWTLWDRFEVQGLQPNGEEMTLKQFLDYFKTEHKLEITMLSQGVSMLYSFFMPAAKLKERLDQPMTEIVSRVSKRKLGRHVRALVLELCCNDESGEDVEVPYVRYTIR
In words: covalent activity-based labelling, UBA1 3.5 uM with 4 eq. of probe, 30 C, reducing SDS-PAGE. How it is done: (§1) E2 probes (14 μM) were mixed with E1 enzyme (3.5 μM) and diluted 10× reaction buffer (500 mM Na_2HPO_4 pH 8) or 10×Ub-ATP buffer (500 mM Na_2HPO_4 pH 8, 20 μM ubiquitin, 20 mM ATP) to a final volume of 15-50 μL. Reactions were incubated at 30° C. and 15 μL aliquots were taken at 1 and 5 h time points which were quenched with 5 μL of reducing SDS-gel loading buffer (NuPAGE LDS loading buffer (4×), 715 mM 2-mercaptoethanol). The quenched reaction solutions were boiled for 5 minute at 100° C. and then 4 μL was analysed by SDS-PAGE (NuPAGE Bis-Tris, 4-12%).

Experiment [2] deals with T2, endogenous UBA1 in HEK293 protein extract (human, UniProt P22314 2-1058, limits assumed).
T2 construct: In a cell lysate, identified by anti-UBA1 blot and molecular weight
T2 sequence (looked up): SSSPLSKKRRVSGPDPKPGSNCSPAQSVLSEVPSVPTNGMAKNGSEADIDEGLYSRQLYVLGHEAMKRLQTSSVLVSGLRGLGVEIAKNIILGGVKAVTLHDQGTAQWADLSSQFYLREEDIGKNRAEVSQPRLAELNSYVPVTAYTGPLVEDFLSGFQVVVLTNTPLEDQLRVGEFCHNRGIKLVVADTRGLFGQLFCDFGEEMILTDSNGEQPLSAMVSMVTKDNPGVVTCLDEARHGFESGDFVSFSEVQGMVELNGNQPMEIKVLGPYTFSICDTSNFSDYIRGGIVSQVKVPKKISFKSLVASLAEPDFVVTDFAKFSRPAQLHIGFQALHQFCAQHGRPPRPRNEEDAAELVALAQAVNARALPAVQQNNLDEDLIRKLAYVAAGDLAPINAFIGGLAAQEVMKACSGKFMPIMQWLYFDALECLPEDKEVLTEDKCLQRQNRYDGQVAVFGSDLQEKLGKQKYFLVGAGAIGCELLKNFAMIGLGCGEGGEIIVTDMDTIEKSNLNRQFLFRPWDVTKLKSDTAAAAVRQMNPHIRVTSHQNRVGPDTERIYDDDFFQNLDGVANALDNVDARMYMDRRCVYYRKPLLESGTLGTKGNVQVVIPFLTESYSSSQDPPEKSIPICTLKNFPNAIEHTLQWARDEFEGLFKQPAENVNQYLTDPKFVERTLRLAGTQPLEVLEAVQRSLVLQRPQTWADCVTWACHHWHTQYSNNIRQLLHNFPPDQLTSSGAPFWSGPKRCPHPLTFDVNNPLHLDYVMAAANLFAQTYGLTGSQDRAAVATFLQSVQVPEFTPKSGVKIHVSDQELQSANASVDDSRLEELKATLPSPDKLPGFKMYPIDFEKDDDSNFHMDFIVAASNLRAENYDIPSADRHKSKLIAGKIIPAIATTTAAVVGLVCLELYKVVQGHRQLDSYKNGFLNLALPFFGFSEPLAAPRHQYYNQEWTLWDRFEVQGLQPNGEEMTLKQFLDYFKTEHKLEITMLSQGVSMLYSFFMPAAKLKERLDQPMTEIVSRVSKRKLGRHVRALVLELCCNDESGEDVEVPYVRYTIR
The experiment is described as follows: probe (25 uM) in HEK293 extract (125 ug), 3 h at 30 C, western blot. On the procedure: Labelling was quenched by the addition of 1 part 4×LDS loading buffer (Life Technologies) supplemented with 715 mM 2-mercaptoethanol (BME) to 3 parts probe-treated protein extract. Proteins were resolved by SDS-PAGE (10%) and transferred to nitrocellulose membrane (20 V for 40-60 min) by semi-dry transfer using a Novex Semi-dry device (Life Technologies). Membranes were blocked by incubation with 5% milk powder in phosphate buffered saline+0.1% Tween 20 (PBST) for 1 h. His-tagged species were probed with 1:10000 anti-His primary antibody (Clontech) in PBST+5% milk powder for 30 min at room temperature. Detection was carried out by incubation with 1:2500 anti-mouse-HRP conjugated antibody (Cell Signalling Technologies) in PBST+5% milk powder for 1 h at room temperature. ECL Prime substrate (GE Life Sciences) was used for visualization in accordance with the manufacturers protocol. Probing for UBA1 was carried out with anti-UBA1 primary antibody (Sigma E3152) and incubated for 1 h at room temperature. Detection was carried out by incubation with 1:15000 anti-mouse-HRP conjugated antibody (Cell Signalling Technologies) in PBST+5% milk powder for 1 h at room temperature.
We next tested whether E2 probes could label endogenous proteins in a complex proteome. We prepared additional thioacrylonitrile and thiomethyl acrylate probes built on UBE2D1, UBE2D2, UBE2D3 and UBE2H. […] UBE2H was chosen as it only has a single catalytic cysteine. Human embryonic kidney cell (HEK293) extracts (125 μg) were incubated with empirically determined probe concentrations (5-25 μM).

Experiment [3] has as its target T1, human Ub E1 activating enzyme UBA1 …. The experiment is described as follows: covalent activity-based labelling of UBA1, reducing SDS-PAGE. How it is done: as §1
Experiment [4] deals with T3, UBA7 (ISG15 E1; His-tagged human UBA7) (human, UniProt P41226 1-1012).
T3 construct: not shown: N-terminal 6xHis tag of the pFastBacHTB vector
T3 sequence (looked up): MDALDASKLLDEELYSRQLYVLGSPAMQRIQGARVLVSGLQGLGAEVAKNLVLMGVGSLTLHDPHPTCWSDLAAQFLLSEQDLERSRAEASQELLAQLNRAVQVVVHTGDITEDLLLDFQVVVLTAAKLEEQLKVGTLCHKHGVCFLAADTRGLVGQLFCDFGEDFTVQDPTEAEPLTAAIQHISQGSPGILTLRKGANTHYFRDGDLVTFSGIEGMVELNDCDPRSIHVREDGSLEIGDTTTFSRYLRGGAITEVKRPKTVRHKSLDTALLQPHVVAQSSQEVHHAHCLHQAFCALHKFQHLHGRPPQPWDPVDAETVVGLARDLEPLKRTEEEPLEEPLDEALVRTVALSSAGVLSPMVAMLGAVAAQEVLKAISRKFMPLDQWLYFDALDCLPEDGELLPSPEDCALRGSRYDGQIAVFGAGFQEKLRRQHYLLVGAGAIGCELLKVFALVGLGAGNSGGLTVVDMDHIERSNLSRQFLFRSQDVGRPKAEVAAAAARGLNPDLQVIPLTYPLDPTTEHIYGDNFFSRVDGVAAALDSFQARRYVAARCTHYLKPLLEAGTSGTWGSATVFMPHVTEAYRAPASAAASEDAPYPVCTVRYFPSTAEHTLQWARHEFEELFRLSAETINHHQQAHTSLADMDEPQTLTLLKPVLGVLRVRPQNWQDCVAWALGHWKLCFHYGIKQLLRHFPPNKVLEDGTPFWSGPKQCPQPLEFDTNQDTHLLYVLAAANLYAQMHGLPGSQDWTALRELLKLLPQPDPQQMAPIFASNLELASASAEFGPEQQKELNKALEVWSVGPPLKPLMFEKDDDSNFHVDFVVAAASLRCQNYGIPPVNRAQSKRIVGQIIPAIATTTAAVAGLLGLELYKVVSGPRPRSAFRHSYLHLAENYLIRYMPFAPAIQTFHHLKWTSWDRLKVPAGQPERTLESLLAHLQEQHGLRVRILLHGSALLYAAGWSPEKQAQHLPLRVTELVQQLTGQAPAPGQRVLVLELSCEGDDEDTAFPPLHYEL
The experiment is described as follows: covalent activity-based labelling, SDS-PAGE (FIG. 3E). How it is done:
as §1

In experiment [5] the target is T1, human Ub E1 activating enzyme UBA1 …. The experiment is described as follows: covalent activity-based labelling, SDS-PAGE (FIG. 3B). How it is done:
as §1

The values that follow come from patent publication US10829799 (UNIVERSITY COURT OF THE UNIVERSITY OF DUNDEE, dated 2020).

B1: UBE2N-=CN (His-tagged UBE2N labelled with (E)-3-tosylacrylonitrile 1; thioacrylonitrile probe) (enzyme)
chain: MGSSHHHHHHSSGLEVLFQGPGSAGLPRRIIKETQRLLAEPVPGIKAEPDESNARYFHVVIAGPQDSPFEGGTFKLELFLPEEYPMAAPKVRFMTKIYHPNVDKLGRICLDILKDKWSPALQIRTVLLSIQALLSAPNPDDPLANDVAEQWKTNEAQAIETARAWTRLYAMNNI
modifications: cysteine labelled with TDMA 1: thioacrylonitrile (activated vinylsulfide) warhead
notes: E2-based activity-based probe; forms a covalent bisthioether with the catalytic cysteine of the E1; also called Ubc13-=CN
With B1, the binding result in experiment [1] and in experiment [2] was “binds” in each case.

B2: UBE2N-VME (His-tagged UBE2N labelled with (E)-methyl 3-tosylacrylate 2; thiomethyl acrylate probe) (enzyme)
chain: MGSSHHHHHHSSGLEVLFQGPGSAGLPRRIIKETQRLLAEPVPGIKAEPDESNARYFHVVIAGPQDSPFEGGTFKLELFLPEEYPMAAPKVRFMTKIYHPNVDKLGRICLDILKDKWSPALQIRTVLLSIQALLSAPNPDDPLANDVAEQWKTNEAQAIETARAWTRLYAMNNI
modifications: cysteine labelled with TDMA 2: thiomethyl acrylate warhead
notes: also called Ubc13-VME
As for B2, the binding result in experiment [3] and in experiment [2] was “binds” throughout.

B3: UBE2H thioacrylonitrile probe (enzyme)
chain: MGSSHHHHHHSSGLEVLFQGPGSMSSPSPGKRRMDTDVVKLIESKHEVTILGGLNEFVVKFYGPQGTPYEGGVWKVRVDLPDKYPFKSPSIGFMNKIFHPNIDEASGTVCLDVINQTWTALYDLTNIFESFLPQLLAYPNPIDPLNGDAAAMYLHRPEEYKQKIKEYIQKYATEEALKEQEEGTGDSSSESSMSDFSEDEAQDMEL
modifications: single catalytic cysteine labelled with TDMA 1 (thioacrylonitrile)
notes: also called UBE2H-=CN
As for B3, in experiment [2], the binding result is “binds”.

B4: UBE2H thiomethyl acrylate probe (enzyme)
chain: MGSSHHHHHHSSGLEVLFQGPGSMSSPSPGKRRMDTDVVKLIESKHEVTILGGLNEFVVKFYGPQGTPYEGGVWKVRVDLPDKYPFKSPSIGFMNKIFHPNIDEASGTVCLDVINQTWTALYDLTNIFESFLPQLLAYPNPIDPLNGDAAAMYLHRPEEYKQKIKEYIQKYATEEALKEQEEGTGDSSSESSMSDFSEDEAQDMEL
modifications: single catalytic cysteine labelled with TDMA 2 (thiomethyl acrylate)
notes: also called UBE2H-VME
Consider B4, for which the binding result in experiment [2] is “binds”.

B5: UBE2L6*-=CN (enzyme)
chain: MGSSHHHHHHSSGLEVLFQGPGSMMASMRVVKELEDLQKKPPPYLRNLSSDDANVLVWHALLLPDQPPYHLKAFNLRISFPPEYPFKPPMIKFTTKIYHPNVDENGQICLPIISSENWKPSTKTSQVLEALNVLVNRPNIREPLRMDLADLLTQNPELFRKNAEEFTLRFGVDRPS
modifications: catalytic cysteine labelled with TDMA 1: thioacrylonitrile warhead
On to B5, for which the binding result in experiment [4] is listed as “binds”.

B6: UBE2L6**-=CN (enzyme)
chain: MGSSHHHHHHSSGLEVLFQGPGSMMASMRVVKELEDLQKKPPPYLRNLSSDDANVLVWHALLLPDQPPYHLKAFNLRISFPPEYPFKPPMIKFTTKIYHPNVDENGQICLPIIASENWKPSTKTSQVLEALNVLVNRPNIREPLRMDLADLLTQNPELFRKNAEEFTLRFGVDRPS
modifications: catalytic cysteine labelled with TDMA 1: thioacrylonitrile warhead
Regarding B6, the binding result in experiment [4] is “binds”.

B7: UBE2L3**-=CN (enzyme)
chain: MGSSHHHHHHSSGLEVLFQGPGSMAASRRLMKELEEIRKSGMKNFRNIQVDEANLLTWQGLIVPDNPPYDKGAFRIEINFPAEYPFKPPKITFKTKIYHPNIDEKGQVCLPVIAAENWKPATKTDQVIQSLIALVNDPQPEHPLRADLAEEYSKDRKKFSKNAEEFTKKYGEKRPVD
modifications: catalytic cysteine labelled with TDMA 1: thioacrylonitrile warhead
notes: also called UBE2L3** thioacrylonitrile probe
As to B7, the binding result in experiment [5] is recorded as “binds”.
